T1: HPV E7 peptide on HLA-A*11:01 (human)
T1 peptide: IVCPICSQK


Target: T1, HPV E7 peptide on HLA-A*11:01
Assay: multimer staining

Binder	binding result
TCR123 (TCR, V domains shown) Valpha: SQKIEQNSEALNIQEGKTATLTCNYTNYSPAYLQWYRQDPGRGPVFLLLIRENEKEKRKERLKVTFDTTLKQSLFHITASQPADSATYLCALAGYQKVTFGTGTKLQVIP Vbeta: SQTIHQWPATLVQPVGSPLSLECTVEGTSNPNLYWYRQAAGRGLQLLFYSVGIGQISSEVPQNLSASRPQDRQFILSSKKLLLSDSGFYLCAWSLRTSGSEQFFGPGTRLTVL	recognises
TCR095 (TCR, V domains shown) Valpha: GIQVEQSPPDLILQEGANSTLRCNFSDSVNNLQWFHQNPWGQLINLFYIPSGTKQNGRLSATTVATERYSLLYISSSQTTDSGVYFCAVEGDNAGGTSYGKLTFGQGTILTVHP Vbeta: EAQVTQNPRYLITVTGKKLTVTCSQNMNHEYMSWYRQDPGLGLRQIYYSMNVEVTDKGDVPEGYKVSRKEKRNFPLILESPSPNQTSLYFCASSWSTSYGYTFGSGTRLTIV	recognises
TCR074 (TCR, V domains shown) Valpha: AQKITQTQPGMFVQEKEAVTLDCTYDTSDPSYGLFWYKQPSSGEMIFLIYQGSYDQQNATEGRYSLNFQKARKSANLVISASQLGDSAMYFCAMRIDAGGTSYGKLTFGQGTILTVHP Vbeta: DAMVIQNPRYQVTQFGKPVTLSCSQTLNHNVMYWYQQKSSQAPKLLFHYYDKDFNNEADTPDNFQSRRPNTSFCFLDIRSPGLGDAAMYLCATSRDRVNTGELFFGEGSRLTVL	recognises
